Test results: patent publication US20260139049A1 (PEDIATRIC IMMUNITY AND HEALTHCARE GUANGZHOU BIOTECHNOLOGY, published 2026)
Positions count from the first letter of the chain named.

B1: PiH1004 (antibody, human IgG1, kappa, V domains shown)
VH: QVQLVQSGAEVKKPGASVKVSCKASGYTFTDYNMHWVRQAPGQSLEWIGYVNPNNGATSYNQKFKGRATMTVDKSTSTVYMELSSLRSEDTAVYNCARWDGYVYYYGLDYWGQGTLVTVSS
VL: DIQMTQSPSSLSASVGDRVTITCKASDHINNWLAWYQQKPGKVPKLLISGATSLETGVPSRFSGSGSGTDYTLTISSLQPEDVATYYCQQYWSTPYTFGGGTKLEIKR
notes: humanized from 51C10H4; IgG1; also called 51-VH4 + VL3
B2: PiH2006 (antibody, human IgG1, kappa, V domains shown)
VH: B1 VH with S44R, V51I, S59N, A68V, M70I, K74T, T76A, V79A, L108M
VL: B1 VL with D17G, V43A, L73F, V83I, S93N
notes: humanized from 54B5A7; IgG1; also called 54-VH2 + VL4
B3: PiH1004-M1 (antibody, human IgG1, kappa, V domains shown)
VH: B1 VH with G56A
VL: B1 VL
notes: PiH1004 with G of NG in heavy-chain CDR2 changed to A; also called improved antibody PiH1004-M1
B4: 15H2D4 (antibody, human IgG1, kappa, V domains shown)
VH: QAYLQQSGAELVRSGASVKMSCKASGYTFTSYNIHWVKQTPGQGLEWIGYIYPGNGGTKYNERFKGKATLTADASSSTAYMQISSLTSEDSAVYFCARWRYYDRPTHYAMDYWGQGTSVTVSS
VL: DIVVTQSPASLAVSLGQRATISCRASKSVSTSGFSYLHWFQQKPGQPPKLLIYLASNLESGVPARFSGSGSGTDFTLNIHPVEEEDVAVYYCQHSREFPFTFGSGTKLEIKR
notes: chimeric: murine variable regions on human IgG1 constant regions
B5: 51C10H4 (antibody, human IgG1, kappa, V domains shown)
VH: EVQLQQSGPELVKPGASVKMSCKASGYTFTDYNMHWVKKSHGKSLEWIGYVNPNNGATSYNQKFKGKATLTVNKSSSTAYMELRSLTSEDSAVYNCARWDGYVYYYGLDYWGQGTSVTVSS
VL: DIQMTQSSSYLSVSLGGRVTITCKASDHINNWLAWYQQKPGNAPRLLISGATSLETGVPSRFSGSGSGKDYTLSITSLQTEDVATYYCQQYWSTPYTFGGGTKLEIKR
notes: chimeric IgG1
B6: 47D5D6 (antibody, human IgG1, kappa, V domains shown)
VH: EVQLVESGGDLVKPGGSLKLSCAASGFTFSSYGMSWVRQTPDKRLEWVATISSGGSYTYYPDSVKGRFTISRDNAKNTLYLQMSSLKSEDTAMYYCARPHYVSSYAMDYWGQGTSVTVSS
VL: B5 VL with Y10S, L11F, G17D, D27E, H28D, N30Y, W32R, Y96P
notes: as for B4
B7: 51C10-M4 (antibody, human IgG1, kappa, V domains shown)
VH: B5 VH with D100E
VL: B5 VL
notes: 51C10H4 with D of DG in heavy-chain CDR3 changed to E; also called improved antibody 51C10-M4
B8: 51C10-M3 (antibody, human IgG1, kappa, V domains shown)
VH: B5 VH with G101A
VL: B5 VL
notes: 51C10H4 with G of DG in heavy-chain CDR3 changed to A; also called improved antibody 51C10-M3
B9: 51C10-M2 (antibody, human IgG1, kappa, V domains shown)
VH: B5 VH with N55Q
VL: B5 VL
notes: 51C10H4 with N of NG in heavy-chain CDR2 changed to Q; also called improved antibody 51C10-M2
B10: 58G3C7 (antibody, human IgG1, kappa, V domains shown)
VH: EVQLVESGGGLVKPGGSLKLSCAASGFTFSNYAMSWVRQTPEKRLEWVATISDGGSYTSYPDNIKGRFTISRDNAKNNLYLQVTHLKSEDTAMYYCARDAILITTAGFAYWGQGTLLTVSA
VL: DIQMTQSSSSFSVSLGDRVTITCKASEDIYNRLAWYQQKPGNAPRLLISATTSLETGVPSRFSGSGSGKDYTLSITSLQTEDVATYYCQQYWSFPRTFGGGTKLEVKR
notes: as for B4

Key:
human CLDN6 [1] = target: T1, human CLDN6 (human, UniProt P56747 1-220); test: FACS on HepG2 tumour cells; target on the cells taken as CLDN6
T1 construct: whole, on cells; four-transmembrane protein; also called claudin-6; HEK293T-CLDN6
T1 sequence (looked up): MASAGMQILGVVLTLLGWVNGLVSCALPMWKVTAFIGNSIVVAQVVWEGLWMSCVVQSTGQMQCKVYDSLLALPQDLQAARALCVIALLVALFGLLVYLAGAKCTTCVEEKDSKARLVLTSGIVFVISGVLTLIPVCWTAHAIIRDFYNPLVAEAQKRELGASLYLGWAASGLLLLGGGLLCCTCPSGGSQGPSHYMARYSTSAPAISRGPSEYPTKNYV
Method: (§1) 50 μL of an antibody to be tested was added to a 96-well plate, then 1×10⁵ cells were added to each well, and incubation was conducted at 4° C. for 1 h. Cells were washed three times with PBS. […] Finally, cells were washed three times with PBS, and signals were read using FACS. A binding capacity of the antibody to each tumor cell was analyzed based on detection data.

human CLDN6 [2] = target: T1, human CLDN6; test: FACS on HEK293T-CLDN6 cells
Method: (§2) To detect a binding capacity of a chimeric or humanized antibody to CLDN6, a CLDN6-expressing cell line HEK293T-CLDN6 and a CLDN6-negative control cell line HEK293T were washed three times with PBS. 1×10⁵ test cells and 50 μL of an antibody solution to be tested were added to a 96-well plate, and incubated at 4° C. for 1 h. The cells were then washed three times with PBS. […] Finally, cells were washed three times with PBS, and signals were read using FACS.
(§3) An EC50 value (a concentration of an antibody that binds to half of binding sites at equilibrium) is calculated through nonlinear regression.

human CLDN6 [3] = target: T1, human CLDN6; test: FACS on HepG2 tumour cells, 5 µg/mL; target on the cells taken as CLDN6
Method: as §1

human CLDN6 [4] = target: T1, human CLDN6; test: FACS on PA-1 tumour cells; target on the cells taken as CLDN6
Method: as §1

human CLDN6 [5] = target: T1, human CLDN6; test: FACS on HepG2 tumour cells; target on the cells taken as CLDN6; remark: listed apart in the source
Method: as §1

[6] = target: T2, monkey CLDN6 (Cyno CLDN6) (monkey (Cyno)); test: FACS on CHO-K1-Cyno CLDN6 cells
T2 construct: whole, on cells; also called CHO-K1-Cyno CLDN6

human CLDN4 = target: T3, human CLDN4 (human, UniProt O14493 1-209); test: FACS on 293T-CLDN4 cells, 10 µg/mL
T3 construct: whole, on cells; also called HEK293T-CLDN4
T3 sequence (looked up): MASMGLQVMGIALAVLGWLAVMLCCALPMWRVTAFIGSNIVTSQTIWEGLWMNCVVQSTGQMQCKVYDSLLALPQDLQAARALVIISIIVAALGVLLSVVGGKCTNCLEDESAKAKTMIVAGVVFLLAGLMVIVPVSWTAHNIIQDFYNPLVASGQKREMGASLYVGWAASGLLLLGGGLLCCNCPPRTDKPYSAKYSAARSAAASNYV
Method: (§4) 50 μL of an antibody to be tested was added to a 96-well plate, then 1× 10⁵ cells were added to each well, and incubation was conducted at 4° C. for 1 h. Cells were washed three times with PBS. […] Finally, cells were washed three times with PBS, and signals were read using FACS. Binding capacities of the antibody to CLDN9, CLDN3, and CLDN4 were analyzed separately based on detection data.

mouse CLDN6 = target: T4, mouse CLDN6 (mouse, UniProt Q9Z262 1-219); test: FACS on CHO-K1-Mouse CLDN6 cells
T4 construct: whole, on cells; also called CHO-K1-Mouse CLDN6
T4 sequence (looked up): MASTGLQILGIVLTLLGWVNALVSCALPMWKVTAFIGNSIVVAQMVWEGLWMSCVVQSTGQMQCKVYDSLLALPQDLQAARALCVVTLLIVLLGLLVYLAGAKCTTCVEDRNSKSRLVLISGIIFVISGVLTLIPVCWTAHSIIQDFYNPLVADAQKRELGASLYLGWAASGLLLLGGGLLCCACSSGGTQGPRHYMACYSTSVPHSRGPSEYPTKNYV

human CLDN6 [7] = target: T1, human CLDN6; test: FACS on PA-1 tumour cells; target on the cells taken as CLDN6; remark: listed apart in the source
Method: (§5) The specific binding of a chimeric antibody to a tumor cell was detected by FACS, and an EC50 value was calculated accordingly to evaluate an inhibitory effect of the chimeric antibody on the tumor cell.
as §1

human CLDN6 [8] = target: T1, human CLDN6; test: FACS on HepG2 tumour cells; target on the cells taken as CLDN6; remark: listed apart in the source
Method: as §5, §1

human CLDN9 = target: T5, human CLDN9 (human, UniProt O95484 1-217); test: FACS on 293T-CLDN9 cells, 10 µg/mL
T5 construct: whole, on cells; also called HEK293T-CLDN9
T5 sequence (looked up): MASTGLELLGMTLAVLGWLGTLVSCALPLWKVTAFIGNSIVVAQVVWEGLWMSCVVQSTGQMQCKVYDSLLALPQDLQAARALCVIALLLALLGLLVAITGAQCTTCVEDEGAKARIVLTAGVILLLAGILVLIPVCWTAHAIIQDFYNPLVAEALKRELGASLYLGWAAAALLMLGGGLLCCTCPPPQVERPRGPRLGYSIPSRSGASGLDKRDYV
Method: as §4

human CLDN6 [9] = target: T1, human CLDN6; test: FACS on HEK293T-CLDN6 cells; remark: listed apart in the source
Method: as §2, §3

human CLDN3 = target: T6, human CLDN3 (human, UniProt O15551 1-220); test: FACS on 293T-CLDN3 cells, 10 µg/mL
T6 construct: whole, on cells; also called HEK293T-CLDN3
T6 sequence (looked up): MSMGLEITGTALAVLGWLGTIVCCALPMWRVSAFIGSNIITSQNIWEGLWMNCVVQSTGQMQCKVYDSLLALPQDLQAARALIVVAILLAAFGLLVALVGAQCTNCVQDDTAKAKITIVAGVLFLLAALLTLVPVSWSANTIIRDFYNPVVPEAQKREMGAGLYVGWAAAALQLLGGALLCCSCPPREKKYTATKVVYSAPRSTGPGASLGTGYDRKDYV
Method: as §4

human CLDN6 [10] = target: T1, human CLDN6; test: FACS on 293T-CLDN6 cells, 10 µg/mL
human CLDN6 [11] = target: T1, human CLDN6; test: ratio of FACS Geom.Mean on 293T-CLDN6 over 293T-CLDN9, 10 µg/mL
Method: as §4

human CLDN6 [12] = target: T1, human CLDN6; test: ratio of FACS signals on CLDN6 cells over CLDN9 cells
Method: as §4

human CLDN6 [13] = target: T1, human CLDN6; test: cell-based or functional assay
human CLDN6 [14] = target: T1, human CLDN6; test: cell-based or functional assay; remark: listed apart in the source
human CLDN6 [15] = target: T1, human CLDN6; test: binding to CLDN6-expressing cells; method not given

| Binder | EC50 [6] [µg/mL] | Geom.Mean (human CLDN4) | EC50 (mouse CLDN6) [µg/mL] | EC50 (human CLDN6 [7]) [µg/mL] | Geom.Mean (human CLDN9) | EC50 (human CLDN6 [9]) [µg/mL] | Geom.Mean (human CLDN3) | Geom.Mean (human CLDN6 [10]) | CLDN6/CLDN9 ratio (human CLDN6 [11]) | CLDN6/CLDN9 signal ratio (human CLDN6 [12]) [fold] | binding result (human CLDN6 [15]) | also measured |
| --- | --- | --- | --- | --- | --- | --- | --- | --- | --- | --- | --- | --- |
| B1 | – | – | – | – | – | – | – | – | – | – | – | EC50 (human CLDN6 [1]): 0.843 µg/mL; EC50 (human CLDN6 [2]): 0.363 µg/mL; Geom.Mean (human CLDN6 [3]): 851; EC50 (human CLDN6 [4]): 0.491 µg/mL |
| B2 | – | – | – | – | – | – | – | – | – | – | – | EC50 (human CLDN6 [5]): 5.84 µg/mL |
| B3 | – | – | – | – | – | – | – | – | – | – | – | Geom.Mean (human CLDN6 [3]): 892 |
| B4 | 0.351 | 5280 | 0.117 | 0.137 | 88.4 | 0.274 | 139 | 40800 | 462 | – | – | EC50 (human CLDN6 [8]): 0.481 µg/mL |
| B5 | 0.722 | 210 | 0.935 | 0.538 | 248 | 0.354 | 103 | 44900 | 181 | ~200 | – | EC50 (human CLDN6 [1]): 0.49 µg/mL; EC50 (human CLDN6 [2]): 0.235 µg/mL; EC50 (human CLDN6 [8]): 0.294 µg/mL; CDC dose-response fit: EC50 (human CLDN6 [13]): 0.178 µg/mL; CDC dose-response fit: LogEC50 (human CLDN6 [13]): -0.75; EC50 (human CLDN6 [4]): 0.34 µg/mL; ADCC dose-response fit: EC50 (human CLDN6 [14]): 0.0483 µg/mL; ADCC dose-response fit: LogEC50 (human CLDN6 [14]): -1.32 |
| B6 | 1.94 | 5620 | 2.09 | – | 428 | 1.04 | 151 | 33000 | 77 | ~50 | – | – |
| B7 | – | – | – | – | – | – | – | – | – | – | binds | – |
| B8 | – | – | – | – | – | – | – | – | – | – | binds | – |
| B9 | – | – | – | – | – | – | – | – | – | – | binds | – |
| B10 | 0.16 | 8440 | – | 0.232 | 731 | 0.135 | – | 33800 | 46 | ~50 | – | – |
